Laboratory results taken from publication doi:10.1101/2020.09.29.318733.

What was measured:
Kohinoor = test: SEC
Padron = test: SEC

Substance | stoichiometry N (Kohinoor) | stoichiometry N (Padron)
Kohinoor | 2 | 
Padron |  | 4
